Columns and labels:
[1] = target: CelA203, lichenase (β-1,3-1,4-glucanase) from Bacillus subtilis B110 (Bacillus subtilis B110); assay: SEC; FPLC, Enrich SEC 650 10 × 300 column, 20 mM Tris-HCl pH 7.0, 0.5 ml/min; calibrated with HMW native protein markers (66-669); polymer and monomer peaks
[2] = target: CelA203, lichenase (β-1,3-1,4-glucanase) from Bacillus subtilis B110 (Bacillus subtilis B110); assay: SDS-PAGE of unboiled sample, mass from a mobility (Rf) standard curve; purified CelA203, unboiled, 10% SDS-PAGE; tetramer band and weak monomer band; tetramer to monomers

- stoichiometry N [1]: 4
- stoichiometry N [2]: 4.07
Substance: CelA203, lichenase (β-1,3-1,4-glucanase) from Bacillus subtilis B110 (enzyme)

Source: publication PMC9628817
